Data on 1 substance can be found in publication PMC9064986.

The target in the experiment is Recombinant human BMP10 growth factor (GF)-domain (R&D Systems) (UniProt O95393). Description: SPR (Biacore). The settings on record: BMP10 immobilised on a CM5 Biacore chip; parent: 1.35E+05 M-1s-1. In general terms: SPR reads the build-up and loss of mass on a sensor chip optically.

The kon is a measure of how fast the partners come together.

Sequence of Recombinant human BMP10 growth factor (GF)-domain (R&D Systems) (O95393 317-424): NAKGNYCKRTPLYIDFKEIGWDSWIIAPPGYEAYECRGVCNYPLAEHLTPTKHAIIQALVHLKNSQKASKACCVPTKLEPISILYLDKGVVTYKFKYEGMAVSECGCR

In the case of “BMPRII extracellular domain (ECD), wild type (from UniProt Q13873-1) ΔGDP (del of Gly, Asp and Pro in the A-loop)”, the kon was 49600 M⁻¹ s⁻¹.
